Assay results from paper PMC4180030.

Target: dimeric oxygen-evolving photosystem II complex isolated from WT T. elongatus (Thermosynechococcus elongatus (endogenous in T. elongatus BP1)) (UniProt P0A444)
Experiment: co-purification by two-step anion-exchange chromatography, immunoblotting; PSII complexes isolated from WT T. elongatus membranes (Kern et al. 2005); semi-quantitative immunoblotting of thylakoids and PSII against recombinant protein standards

B1: CyanoQ (Tll2057) from Thermosynechococcus elongatus (natural protein)
chain: CGGPSATTPPPPTYSELQITRIQDYLRDIEKNAERFADLEVSVAKGDWQEARNIMRGPLGEMLMDMRALNRNLLAKDQPTPTALTRALTDDFLKIDQGADLDSVTVAQEGFREAEADFKAYLNSLPELS
In the case of B1, the stoichiometry N (CyanoQ per PSII monomer) is reported as 0.4.
